Source: PMC6829599 (The Journal of Experimental Medicine, 2019)

B1: p47phox PX domain (truncated p47phox, residues 2–132) (domain or fragment)
chain: GDTFIRHIALLGFEKRFVPSQHYVYMFLVKWQDLSEKVVYRRFTEIYEFHKTLKEMFPIEAGAINPENRIIPHLPAPKWFDGQRAAENRQGTLTEYCSTLMSLPTKISRCPHLLDFFKVRPDDLKLPTDNQ

Legend:
[1] = molecular target: recombinant PCNA (proliferating cell nuclear antigen) (human) (UniProt P12004); assay: SPR
[2] = molecular target: recombinant PCNA (proliferating cell nuclear antigen) (human, UniProt P12004 1-261); assay: SPR

Molecule | Kd [1] | k (backward) (two-state model, second step) [1] | k (forward) (two-state model, second step) [1] | ka1 (two-state model, first step) [1] | kd1 (two-state model, first step) [1] | Kd [2] | kon [2]
recombinant human Rac2 (from UniProt P15153 1-192) (natural protein; other documents disagree on this pair) | 3.3 µM | 0.00066 s⁻¹ | 0.0057 s⁻¹ | 541 M⁻¹ s⁻¹ | 0.017 s⁻¹ |  | 
B1 |  |  |  |  |  | 33 µM | 85.2 M⁻¹ s⁻¹
